Laboratory results reported in paper PMC10687025, “Endosomal Arl4A attenuates EGFR degradation by binding to the ESCRT-II component VPS36” (Nature Communications, 2023).

Experiments:
Test in all cases: pull-down; 2 μg GST fusion protein on glutathione beads with 2 μg His-tagged Arl4A in 1 ml binding buffer (20 mM Tris-HCl pH 8.0, 150 mM NaCl, 5 mM MgCl2, 1 mM EDTA, 1 mM DTT, 10% glycerol, 1% Triton X-100), 1 h at 4 °C; anti-His blot
Conditions in all cases: both partners purified
His-tagged Arl4A T51N = target: T1, His-tagged Arl4A T51N (UniProt P40617 1-200, T51N)
T1 construct: Arl4A, mutant T51N; also called His-Arl4A T51N; source: recombinant, purified (Ni-NTA resin)
T1 sequence (looked up): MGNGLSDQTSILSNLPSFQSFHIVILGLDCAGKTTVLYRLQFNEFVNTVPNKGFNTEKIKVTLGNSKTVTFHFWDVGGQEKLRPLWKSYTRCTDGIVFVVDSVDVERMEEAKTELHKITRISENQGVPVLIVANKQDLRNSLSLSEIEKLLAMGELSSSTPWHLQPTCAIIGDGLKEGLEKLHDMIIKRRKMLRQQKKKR

His-tagged Arl4A WT = target: T2, His-tagged Arl4A WT (UniProt P40617 1-200)
T2 construct: Arl4A, wild type; also called His-Arl4A; source: recombinant, purified (Ni-NTA resin)
T2 sequence (looked up): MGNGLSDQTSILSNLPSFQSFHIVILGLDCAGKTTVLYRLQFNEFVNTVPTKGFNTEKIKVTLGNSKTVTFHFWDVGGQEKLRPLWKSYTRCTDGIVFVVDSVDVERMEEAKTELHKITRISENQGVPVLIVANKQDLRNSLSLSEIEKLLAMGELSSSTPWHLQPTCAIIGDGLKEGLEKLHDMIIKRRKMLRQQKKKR

His-tagged Arl4A Q79L = target: T3, His-tagged Arl4A Q79L (UniProt P40617 1-200, Q79L)
T3 construct: Arl4A, mutant Q79L; source: recombinant, purified (Ni-NTA resin)
T3 sequence (looked up): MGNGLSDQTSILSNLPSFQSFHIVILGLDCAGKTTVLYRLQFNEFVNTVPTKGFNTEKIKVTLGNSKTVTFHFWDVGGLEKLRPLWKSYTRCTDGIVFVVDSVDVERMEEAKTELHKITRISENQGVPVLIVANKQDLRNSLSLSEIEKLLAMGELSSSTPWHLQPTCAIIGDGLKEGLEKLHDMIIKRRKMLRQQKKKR

binding result (His-tagged Arl4A T51N): binds
binding result (His-tagged Arl4A WT): binds
binding result (His-tagged Arl4A Q79L): binds
B1: GST-VPS36 (201–386) (domain or fragment, UniProt Q86VN1 201-386, looked up)
chain: KIKDKQGDITEDETIRFKSYLLSMGIANPVTRETYGSGTQYHMQLAKQLAGILQVPLEERGGIMSLTEVYCLVNRARGMELLSPEDLVNACKMLEALKLPLRLRVFDSGVMVIELQSHKEEEMVASALETVSEKGSLTSEEFAKLVGMSVLLAKERLLLAEKMGHLCRDDSVEGLRFYPNLFMTQS
notes: source: E. coli BL21, purified on glutathione Sepharose 4B beads
